Here are results for 3 molecules from PMC8319186, “Mitochondrial adaptor TRAK2 activates and functionally links opposing kinesin and dynein motors” (Nature Communications, 2021).

Where only a bound is given, the exact number is not on record here.

Assay [1] concerns the target dynein heavy chain (endogenous, COS-7). Kind of assay: co-immunoprecipitation (Halo antibody IP, western blot quantification). The following applies: extracts from COS-7 cells transfected with Myc-KIF5B and Halo-tagged constructs; mean ± s.d. from three independent experiments; parent: est. 0.21; read off a plot. In general terms: In western blotting, separated proteins are transferred to a membrane and probed.

The target in a further assay is T1, Myc-KIF5C-Halo (mouse, UniProt P28738 1-956).
T1 sequence (looked up): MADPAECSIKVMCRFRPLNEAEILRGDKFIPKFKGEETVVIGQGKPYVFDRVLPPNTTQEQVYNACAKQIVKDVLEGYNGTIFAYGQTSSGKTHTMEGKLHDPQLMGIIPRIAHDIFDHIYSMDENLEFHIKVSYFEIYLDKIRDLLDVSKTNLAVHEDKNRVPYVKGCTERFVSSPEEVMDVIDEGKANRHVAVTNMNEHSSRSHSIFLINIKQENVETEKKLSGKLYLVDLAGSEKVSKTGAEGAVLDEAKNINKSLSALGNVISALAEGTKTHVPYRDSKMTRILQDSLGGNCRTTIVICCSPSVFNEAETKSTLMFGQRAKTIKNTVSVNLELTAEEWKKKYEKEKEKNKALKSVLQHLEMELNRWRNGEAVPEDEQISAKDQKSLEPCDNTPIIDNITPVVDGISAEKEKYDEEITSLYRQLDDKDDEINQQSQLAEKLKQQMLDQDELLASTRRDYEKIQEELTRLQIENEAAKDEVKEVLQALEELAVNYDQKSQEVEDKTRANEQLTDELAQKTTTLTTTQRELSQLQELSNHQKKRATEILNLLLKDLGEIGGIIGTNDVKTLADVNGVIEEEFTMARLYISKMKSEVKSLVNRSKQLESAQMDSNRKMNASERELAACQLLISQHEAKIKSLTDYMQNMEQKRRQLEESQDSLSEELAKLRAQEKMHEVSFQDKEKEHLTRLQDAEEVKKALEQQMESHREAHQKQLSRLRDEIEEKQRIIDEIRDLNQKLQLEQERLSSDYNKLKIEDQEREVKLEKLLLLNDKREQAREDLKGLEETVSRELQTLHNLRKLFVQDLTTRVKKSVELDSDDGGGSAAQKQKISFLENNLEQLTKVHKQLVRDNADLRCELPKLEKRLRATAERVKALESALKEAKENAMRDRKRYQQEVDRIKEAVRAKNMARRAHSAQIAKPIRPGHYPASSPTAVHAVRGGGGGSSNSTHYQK
Kind of assay: cell-based or functional assay.

As for “Halo-TRAK2 (from UniProt O60296) A129V; A130V”, in assay [1], the response was 0.08.

For Halo-TRAK2 (from UniProt O60296) I132D, the response in assay [1] came to 0.07.

B1: HA-TRAK2 (natural protein, UniProt O60296 1-914, looked up)
chain: MSQSQNAIFTSPTGEENLMNSNHRDSESITDVCSNEDLPEVELVSLLEEQLPQYRLKVDTLFLYENQDWTQSPHQRQHASDALSPVLAEETFRYMILGTDRVEQMTKTYNDIDMVTHLLAERDRDLELAARIGQALLKRNHVLSEQNESLEEQLGQAFDQVNQLQHELCKKDELLRIVSIASEESETDSSCSTPLRFNESFSLSQGLLQLEMLQEKLKELEEENMALRSKACHIKTETVTYEEKEQQLVSDCVKELRETNAQMSRMTEELSGKSDELIRYQEELSSLLSQIVDLQHKLKEHVIEKEELKLHLQASKDAQRQLTMELHELQDRNMECLGMLHESQEEIKELRSRSGPTAHLYFSQSYGAFTGESLAAEIEGTMRKKLSLDEESSLFKQKAQQKRVFDTVRIANDTRGRSISFPALLPIPGSNRSSVIMTAKPFESGLQQTEDKSLLNQGSSSEEVAGSSQKMGQPGPSGDSDLATALHRLSLRRQNYLSEKQFFAEEWQRKIQVLADQKEGVSGCVTPTESLASLCTTQSEITDLSSASCLRGFMPEKLQIVKPLEGSQTLYHWQQLAQPNLGTILDPRPGVITKGFTQLPGDAIYHISDLEEDEEEGITFQVQQPLEVEEKLSTSKPVTGIFLPPITSAGGPVTVATANPGKCLSCTNSTFTFTTCRILHPSDITQVTPSSGFPSLSCGSSGSSSSNTAVNSPALSYRLSIGESITNRRDSTTTFSSTMSLAKLLQERGISAKVYHSPISENPLQPLPKSLAIPSTPPNSPSHSPCPSPLPFEPRVHLSENFLASRPAETFLQEMYGLRPSRNPPDVGQLKMNLVDRLKRLGIARVVKNPGAQENGRCQEAEIGPQKPDSAVYLNSGSSLLGGLRRNQSLPVIMGSFAAPVCTSSPKMGVLKED
For the molecule B1, the “frequency of KIF5C runs along dynamic microtubules (single-molecule TIRF of COS-7 lysate) with against without exogenous HA-TRAK2” value in the assay with Myc-KIF5C-Halo was more than 3 fold.
